One block for each molecule: values may come before it.
Legend:
Mv1Lu cells = experiment: [3H]thymidine incorporation (growth) in Mv1Lu mink lung epithelial cells; format: cell-based; settings: TGFβ-1 at 0.5 ng/ml
Description: Assay was performed as in FIG. 4A, except that TGFβ-1 was added at 0.5 ng/ml. This concentration of TGFβ induces 50% reduction of [^3 H]-thymidine incorporation in the Mv1Lu cells. The data represent neutralization of TGFβ-induced growth inhibition; i.e., [^3 H]-thymidine incorporation in the presence of neither TGFβ or decorin=100%; incorporation in the presence of TGFβ but not decorin=0%. […] This was shown by gel filtration of the DEAE-isolated decorin under dissociating conditions. […] The fractions were analyzed by SDS-PAGE, decorin ELISA and cell growth assays, all described above. Three protein peaks were obtained. […] Shown are the ability of the gel filtration fractions to affect [^3 H]-thymidine incorporation by the CHO cells and the concentration of decorin as determined by enzyme immunoassay. Shown also (arrows) are the elution positions of molecular size markers: BSA, bovine serum albumin (Mr=66,000); CA, carbonic anhydrase (Mr=29,000); Cy, cytochrome c (Mr=12,400); AP, aprotinin (Mr=6,500); TGF, [^125 I]TGFβ-1 (Mr=25,000).

CHO cells = experiment: [3H]thymidine incorporation (growth) in CHO cells; format: cell-based; settings: TGFβ-1 at 5 ng/ml
Description: (§1) The ability of decorin to modulate the activity of TGFβ-1 was examined in [^3 H]thymidine incorporation assays. In one assay, an unamplified CHO cell line transfected only with pSV2dhfr (control cell line A in reference 1, called CHO cells here) was used. The cells were maintained in nucleoside-free alpha-modified minimal essential medium (e-MEM, GIBCO, Long Island, N.Y.) supplemented with 9% dialyzed fetal calf serum (dFCS) and [^3 H]thymidine incorporation was assayed as described (Cheifetz et al., Cell 48:409-415 (1987)). TGFβ-1 was added to the CHO cell cultures at 5 ng/ml. At this concentration, it induced a 50% increase of [^3 H]thymidine incorporation in these cells. Decorin or BSA was added to the medium at different concentrations. The data represent percent neutralization of the TGFβ-1-induced growth stimulation, i.e., [^3 H]thymidine incorporation, in the absence of either TGFβ-1 or decorin=0%, incorporation in the presence of TGFβ-1 but not decorin=100%. […] Decorin (.circle-solid.) BSA (.largecircle.).
This was shown by gel filtration of the DEAE-isolated decorin under dissociating conditions. […] The fractions were analyzed by SDS-PAGE, decorin ELISA and cell growth assays, all described above. […] Shown are the ability of the gel filtration fractions to affect [^3 H]-thymidine incorporation by the CHO cells and the concentration of decorin as determined by enzyme immunoassay. […]

TGF-β [1] = biological target: T1, TGF-β (Homo sapiens, UniProt P01137); experiment: Binding of 125I-TGF-β to L-M(tk-) cells; settings: 250 pM [125I]TGF-β, 2 hours room temperature; proteins
T1 sequence (P01137 279-390 limits assumed): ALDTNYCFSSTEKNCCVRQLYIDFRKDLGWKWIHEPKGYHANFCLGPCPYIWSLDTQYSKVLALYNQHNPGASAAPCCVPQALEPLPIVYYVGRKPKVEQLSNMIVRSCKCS
Description: (§2) About 2.5×10^4 HepG2 cells or L-M(tk-) cells were incubated with 250 pM[^125 I]TGF-β in the presence of recombinant human decorin (DC-12), PT-71 (MBP), decorin fragments (PT-72, -73, -84, -85, -86 and -87) or anti-TGF-β antibodies for 2 hours at room temperature. Cells were washed with washing buffer (128 mM NaCl, 5 mM KCl, 5 mM […], 1.2 mM CaCl2, 50 mM HEPES, pH 7.5) four times before determination of bound CPM.
The activity of the peptides was evaluated using the L-M(tk-) TGFβ1 binding inhibition assay described in Example VII, except various concentrations of peptide were incubated with the cells and TGFβ1 instead of decorin and recombinant decorin fragments. The negative control was a synthetic peptide corresponding to the first 15 amino acids of decorin, which has the sequence […](SEQ ID NO. 21).

TGF-β [2] = biological target: T1, TGF-β; experiment: Binding of 125I-TGF-β to HepG2 cells; settings: 250 pM [125I]TGF-β, 2 hours room temperature
Description: as §2

TGFβ-1 [3] = biological target: T2, TGFβ-1 (Homo sapiens, UniProt P01137); experiment: [3H]thymidine incorporation assay: neutralization of TGFβ-1-induced growth stimulation in CHO cells; format: cell-based; design: contains a major band at 25 kd; This band represents the native TGFβ-1 dimer; purchased Calbiochem, La Jolla, Calif
T2 sequence (P01137 279-390 limits assumed, species assumed): as the sequence (P01137 279-390 limits assumed) above
Description: as §1
IgG from a normal rabbit serum had no effect in the assay (.largecircle.).

TGFβ-1 [4] = biological target: T2, TGFβ-1; experiment: [3H]thymidine incorporation assay: neutralization of TGFβ-1-induced growth inhibition in Mv1Lu cells; format: cell-based, mink; design: contains a major band at 25 kd; This band represents the native TGFβ-1 dimer; settings: TGFβ-1 0.5 ng/ml
Description: Assay was performed as in FIG. 4A, except that TGFβ-1 was added at 0.5 ng/ml. This concentration of TGFβ induces 50% reduction of [^3 H]-thymidine incorporation in the Mv1Lu cells. The data represent neutralization of TGFβ-induced growth inhibition; i.e., [^3 H]-thymidine incorporation in the presence of neither TGFβ or decorin=100%; incorporation in the presence of TGFβ but not decorin=0%.

TGFβ-1 [5] = biological target: T2, TGFβ-1; experiment: Microtiter binding assay: [125I]-TGFβ-1 binding to decorin-coated wells and competition; design: contains a major band at 25 kd; This band represents the native TGFβ-1 dimer; purchased Calbiochem, La Jolla, Calif; settings: intact proteoglycans, 37° C. 4 hours (FIG. 3A)
Description: The binding of TGFβ-1 to decorin was also examined in a microtiter binding assay. To perform the assay, the wells of a 96-well microtiter plate were coated overnight with 2μg/ml of recombinant decorin in 0.1M sodium carbonate buffer, pH 9.5. The wells were washed with PBS containing 0.05% Tween (PBS/Tween) and samples containing 5×10^4 cpm of [^125 I]-TGFβ-1 and various concentrations of competitors in PBS/Tween were added to each well. The plates were then incubated at 37° C. for 4 hours (at 4° C. overnight in experiments with chondroitinase ABC-digested proteoglycans), washed with PBS/Tween and the bound radioactivity was solubilized with 1% SDS in 0.2M NaOH. Total binding without competitors was about 4% under the conditions used. Nonspecific binding, determined by adding 100-fold molar excess of unlabeled TGFβ-1 over the labeled TGFβ-1 to the incubation mixture, was about 13% of total binding. This assay was also used to study the ability of other decorin preparations and related proteins to compete with the interaction.
Decorin isolated from bovine skin and biglycan isolated from bovine articular cartilage (PGI and PGII, obtained from Dr. Lawrence Rosenberg, Monteflore Medical Center, N.Y.; and described in Rosenberg et al., J. Biol. Chem. 250:6304-6313, (1985), incorporated by reference herein), chicken cartilage proteoglycan (provided by Dr. Paul Goetinck, La Jolla Cancer Research Foundation, La Jolla, Calif., and described in Goetinck, P. F., in THE GLYCOCONJUGATES, Vol. III, Horwitz, M. I., Editor, pp. 197-217, Academic Press, NY). For the preparation of core proteins, proteoglycans were digested with chondroitinase ABC (Seikagaku, Tokyo, Japan) by incubating 500 μg of proteoglycan with 0.8 units of chondroitinase ABC in 250 μl of 0.1M Tris/Cl, pH 8.0, 30 mM sodium acetate, 2 mM PMSF, 10 mM N-ethylmalelmide, 10 mM EDTA, and 0.36 mM pepstatin for 1 hour at 37° C. Recombinant decorin and decorin isolated from bovine skin (PGII) inhibited the binding of [^125 I]-TGFβ-1, as expected (FIG. 3A). […] This notion was further supported by competition experiments with the mutated decorin core protein (not shown) and chondroitinase ABC-digested decorin and biglycan (FIG.3B). Each of these proteins was inhibitory, whereas cartilage proteoglycan core protein was not.

Molecule: TGFβ-1: commercially obtained transforming growth factor β-1
reduction of [3H]-thymidine incorporation (Mv1Lu cells): 50%
increase of [3H]thymidine incorporation (CHO cells): 50%

inhibition of 125I-TGF-β binding to L-M(tk-) cells (TGF-β [1]): inhibited
inhibition of 125I-TGF-β binding to HepG2 cells (TGF-β [2]): inhibited
B1: Recombinant human decorin: recombinant human decorin (DC-12) (protein)
chain: DEASGIGPEVPDDRDFEPSLGPVCPFRCQCHLRVVQCSDLGLDKVPKDLPPDTTLLDLQNNKITEIKDGDFKNLKNLHALILVNNKISKVSPGAFTPLVKLERLYLSKNQLKELPEKMPKTLQELRAHENEITKVRKVTFNGLNQMIVIELGTNPLKSSGIENGAFQGMKKLSYIRIADTNITSIPQGLPPSLTELHLDGNKISRVDAASLKGLNNLAKLGLSFNSISAVDNGSLANTPHLRELHLDNNKLTRVPGGLAEHKYIQVVYLHNNNISVVGSSDFCPPGHNTKKASYSGVSLFSNPVQYWEIQPSTFRCVYVRSAIQLGNYK
modifications: single glycosaminoglycan chain of a chondroitin sulfate/dermatan sulfate type on serine-4

half maximal activity, neutralization of growth stimulatory activity of TGFβ-1 (TGFβ-1 [3]; TGFβ-1 5 ng/ml): about 5 μg/ml
inhibition of [125I]-TGFβ-1 binding to decorin-coated wells (TGFβ-1 [5]): inhibited
B2: Decorin: recombinant decorin proteoglycan purified from transfected CHO cell media (protein)
chain: B1 chain
modifications: single glycosaminoglycan chain of a chondroitin sulfate/dermatan sulfate type on serine-4
notes: recombinant decorin proteoglycan purified from transfected CHO cell media
[3H]-thymidine incorporation with additional decorin (TGFβ-1 [3]; higher decorin concentrations): suppressed the [^3 H]-thymidine incorporation below the level observed without any added TGFβ-1
effect on TGFβ-1-induced growth inhibition (TGFβ-1 [4]): revealed an effect by decorin on the activity of TGFβ-1

Reference: US5705609A, “Decorin fragments inhibiting cell regulatory factors” (La Jolla Cancer Research Foundation, priority 1995, dated 1998)
